Where a chain is given by its changes, count along the chain named. Names may count otherwise.
T1: Human CD3eg linker (human)
T1 construct: Single chain: epsilon and gamma subunits of human CD3 joined by a 29-mer linker, Flag-tag at the C-terminus; also called recombinant human CD3
T1 chain: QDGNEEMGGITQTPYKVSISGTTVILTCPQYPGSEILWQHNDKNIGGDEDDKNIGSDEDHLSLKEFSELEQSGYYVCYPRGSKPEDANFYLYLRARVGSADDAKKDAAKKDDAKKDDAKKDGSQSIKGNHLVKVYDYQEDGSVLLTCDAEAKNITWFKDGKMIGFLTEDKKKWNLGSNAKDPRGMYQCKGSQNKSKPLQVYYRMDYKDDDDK

B1: H183/L072 VL S26A (antibody, name in Kabat numbering, V domains shown)
VH: QVQLVESGGGLVQPGRSLRLSCAASGFTFSNAWMHWVRQAPGKGLEWVAQIKDKGNAYAAYYAPSVKGRFTISRDDSKNSIYLQMNSLKTEDTAVYYCHYVHYASASTVLPAFGVDAWGQGTTVTVSS
VL: DIVMTQSPLSLPVTPGEPASISCQAAQELVHMNRNTYLHWYQQKPGQAPRLLIYKVSNRFPGVPDRFSGSGSGTDFTLKISRVEAEDVGVYYCAQGTSVPFTFGQGTKLEIK
notes: Dual-Ig
B2: H183/L072 VL A89W (antibody, name in Kabat numbering, V domains shown)
VH: B1 VH
VL: B1 VL with A26S, A94W
notes: Dual-Ig
B3: H183/L072 VL A89L (antibody, name in Kabat numbering, V domains shown)
VH: B1 VH
VL: B1 VL with A26S, A94L
notes: Dual-Ig
B4: H183/L072 VL A25G (antibody, name in Kabat numbering, V domains shown)
VH: B1 VH
VL: B1 VL with A25G, A26S
notes: Dual-Ig
B5: H183/L072 VL A89R (antibody, name in Kabat numbering, V domains shown)
VH: B1 VH
VL: B1 VL with A26S, A94R
notes: Dual-Ig
B6: H183/L072 VL A89Q (antibody, name in Kabat numbering, V domains shown)
VH: B1 VH
VL: B1 VL with A26S, A94Q
notes: Dual-Ig
B7: H183/L072 VL A25I (antibody, name in Kabat numbering, V domains shown)
VH: B1 VH
VL: B1 VL with A25I, A26S
notes: Dual-Ig
B8: H183/L072 VL A89V (antibody, name in Kabat numbering, V domains shown)
VH: B1 VH
VL: B1 VL with A26S, A94V
notes: Dual-Ig
B9: H183/L072 VL A89G (antibody, name in Kabat numbering, V domains shown)
VH: B1 VH
VL: B1 VL with A26S, A94G
notes: Dual-Ig
B10: H183/L072 VL A25T (antibody, name in Kabat numbering, V domains shown)
VH: B1 VH
VL: B1 VL with A25T, A26S
notes: Dual-Ig
B11: H183/L072 VL A25L (antibody, name in Kabat numbering, V domains shown)
VH: B1 VH
VL: B1 VL with A25L, A26S
notes: Dual-Ig
B12: H183/L072 VL A89N (antibody, name in Kabat numbering, V domains shown)
VH: B1 VH
VL: B1 VL with A26S, A94N
notes: Dual-Ig
B13: H183/L072 VL E27aA (antibody, name in Kabat numbering, V domains shown)
VH: B1 VH
VL: B1 VL with A26S, E28A
notes: Dual-Ig
B14: H183/L072 VL A25Q (antibody, name in Kabat numbering, V domains shown)
VH: B1 VH
VL: B1 VL with A25Q, A26S
notes: Dual-Ig
B15: H183/L072 VL A89F (antibody, name in Kabat numbering, V domains shown)
VH: B1 VH
VL: B1 VL with A26S, A94F
notes: Dual-Ig
B16: H183/L072 VL A89D (antibody, name in Kabat numbering, V domains shown)
VH: B1 VH
VL: B1 VL with A26S, A94D
notes: Dual-Ig
B17: H183/L072 VL A25M (antibody, name in Kabat numbering, V domains shown)
VH: B1 VH
VL: B1 VL with A25M, A26S
notes: Dual-Ig
B18: H183/L072 VL A89T (antibody, name in Kabat numbering, V domains shown)
VH: B1 VH
VL: B1 VL with A26S, A94T
notes: Dual-Ig
B19: H183/L072 VL A89M (antibody, name in Kabat numbering, V domains shown)
VH: B1 VH
VL: B1 VL with A26S, A94M
notes: Dual-Ig
B20: H183/L072 VL A89H (antibody, name in Kabat numbering, V domains shown)
VH: B1 VH
VL: B1 VL with A26S, A94H
notes: Dual-Ig
B21: H183/L072 VL A89S (antibody, name in Kabat numbering, V domains shown)
VH: B1 VH
VL: B1 VL with A26S, A94S
notes: Dual-Ig
B22: H183/L072 VL A89I (antibody, name in Kabat numbering, V domains shown)
VH: B1 VH
VL: B1 VL with A26S, A94I
notes: Dual-Ig
B23: H183/L072 VL A89P (antibody, name in Kabat numbering, V domains shown)
VH: B1 VH
VL: B1 VL with A26S, A94P
notes: Dual-Ig
B24: H183/L072 VL A89K (antibody, name in Kabat numbering, V domains shown)
VH: B1 VH
VL: B1 VL with A26S, A94K
notes: Dual-Ig
B25: H183/L072 VL A25N (antibody, name in Kabat numbering, V domains shown)
VH: B1 VH
VL: B1 VL with A25N, A26S
notes: Dual-Ig
B26: H183/L072 VL A89E (antibody, name in Kabat numbering, V domains shown)
VH: B1 VH
VL: B1 VL with A26S, A94E
notes: Dual-Ig
B27: H183/L072 VL A25S (antibody, name in Kabat numbering, V domains shown)
VH: B1 VH
VL: B1 VL with A25S, A26S
notes: Dual-Ig
B28: H183/L072 VL A25V (antibody, name in Kabat numbering, V domains shown)
VH: B1 VH
VL: B1 VL with A25V, A26S
notes: Dual-Ig
B29: H183/L072 VL A25P (antibody, name in Kabat numbering, V domains shown)
VH: B1 VH
VL: B1 VL with A25P, A26S
notes: Dual-Ig
B30: H183/L072 VL E27aD (antibody, name in Kabat numbering, V domains shown)
VH: B1 VH
VL: B1 VL with A26S, E28D
notes: Dual-Ig
B31: H183/L072 VH Y59V (antibody, name in Kabat numbering, V domains shown)
VH: B1 VH with Y62V
VL: B1 VL with A26S
B32: H183/L072 VH Y97P (antibody, name in Kabat numbering, V domains shown)
VH: B1 VH with Y103P
VL: B1 VL with A26S
B33: H183/L072 VH Y97A (antibody, name in Kabat numbering, V domains shown)
VH: B1 VH with Y103A
VL: B1 VL with A26S
B34: H183/L072 VH Y94M (antibody, name in Kabat numbering, V domains shown)
VH: B1 VH with Y100M
VL: B1 VL with A26S
B35: H183/L072 VH Y97I (antibody, name in Kabat numbering, V domains shown)
VH: B1 VH with Y103I
VL: B1 VL with A26S
B36: H183/L072 VH Y97L (antibody, name in Kabat numbering, V domains shown)
VH: B1 VH with Y103L
VL: B1 VL with A26S
B37: H183/L072 VH Y94L (antibody, name in Kabat numbering, V domains shown)
VH: B1 VH with Y100L
VL: B1 VL with A26S
B38: H183/L072 VH Y59T (antibody, name in Kabat numbering, V domains shown)
VH: B1 VH with Y62T
VL: B1 VL with A26S
B39: H183/L072 VH Y59W (antibody, name in Kabat numbering, V domains shown)
VH: B1 VH with Y62W
VL: B1 VL with A26S
B40: H183/L072 VH Y59S (antibody, name in Kabat numbering, V domains shown)
VH: B1 VH with Y62S
VL: B1 VL with A26S
B41: H183/L072 VH Y94P (antibody, name in Kabat numbering, V domains shown)
VH: B1 VH with Y100P
VL: B1 VL with A26S
B42: H183/L072 VH Y94I (antibody, name in Kabat numbering, V domains shown)
VH: B1 VH with Y100I
VL: B1 VL with A26S
B43: H183/L072 VH Y97M (antibody, name in Kabat numbering, V domains shown)
VH: B1 VH with Y103M
VL: B1 VL with A26S
B44: H183/L072 VH Y94A (antibody, name in Kabat numbering, V domains shown)
VH: B1 VH with Y100A
VL: B1 VL with A26S

Each binder was assayed against T2, Human CD137 ECD (human) (assay: Biacore SPR, vs parent H183/L072).
T2 construct: entry includes C-terminal His-tag and biotin acceptor peptide; also called human CD137 extracellular domain; 4-1BB
T2 sequence (chain, as listed by the source limits assumed): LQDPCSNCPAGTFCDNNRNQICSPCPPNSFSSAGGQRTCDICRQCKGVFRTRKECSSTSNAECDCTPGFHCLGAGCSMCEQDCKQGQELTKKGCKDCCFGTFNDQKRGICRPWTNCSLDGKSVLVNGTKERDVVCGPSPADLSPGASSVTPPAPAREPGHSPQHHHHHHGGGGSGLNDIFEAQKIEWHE

Row | Binder | fold change of affinity [fold]
1 | B1 | 0.8
2 | B2 | 0
3 | B3 | 0
4 | B4 | 0.7
5 | B5 | 0
6 | B6 | 0
7 | B7 | 0.2
8 | B8 | 0
9 | B9 | 0.5
10 | B10 | 0.7
11 | B11 | 0.1
12 | B12 | 0
13 | B13 | 0.9
14 | B14 | 0.1
15 | B15 | 0
16 | B16 | 0
17 | B17 | 0.1
18 | B18 | 0
19 | B19 | 0
20 | B20 | 0
21 | B21 | 0
22 | B22 | 0
23 | B23 | 0
24 | B24 | 0
25 | B25 | 0.2
26 | B26 | 0
27 | B27 | 1.1
28 | B28 | 0.5
29 | B29 | 1.4
30 | B30 | 1.1

Target: T1, Human CD3eg linker
Experiment: Biacore SPR, vs template H183/L072

Row | Binder | fold change of affinity [fold]
31 | B31 | 1.2
32 | B32 | 0
33 | B33 | 0
34 | B34 | 0
35 | B35 | 0
36 | B36 | 0
37 | B37 | 0.8
38 | B38 | 1.2
39 | B39 | 0.6
40 | B40 | 1.1
41 | B41 | 0
42 | B42 | 0
43 | B43 | 0
44 | B44 | 0.4

— US20210388087A1 (Chugai, published 2021)
